# Reference: paper PMC4109716
# Like-named read-outs stand apart in the source and are kept apart here.
# T1: POT1 (Homo sapiens, UniProt Q9NUX5 1-634)
# T1 sequence: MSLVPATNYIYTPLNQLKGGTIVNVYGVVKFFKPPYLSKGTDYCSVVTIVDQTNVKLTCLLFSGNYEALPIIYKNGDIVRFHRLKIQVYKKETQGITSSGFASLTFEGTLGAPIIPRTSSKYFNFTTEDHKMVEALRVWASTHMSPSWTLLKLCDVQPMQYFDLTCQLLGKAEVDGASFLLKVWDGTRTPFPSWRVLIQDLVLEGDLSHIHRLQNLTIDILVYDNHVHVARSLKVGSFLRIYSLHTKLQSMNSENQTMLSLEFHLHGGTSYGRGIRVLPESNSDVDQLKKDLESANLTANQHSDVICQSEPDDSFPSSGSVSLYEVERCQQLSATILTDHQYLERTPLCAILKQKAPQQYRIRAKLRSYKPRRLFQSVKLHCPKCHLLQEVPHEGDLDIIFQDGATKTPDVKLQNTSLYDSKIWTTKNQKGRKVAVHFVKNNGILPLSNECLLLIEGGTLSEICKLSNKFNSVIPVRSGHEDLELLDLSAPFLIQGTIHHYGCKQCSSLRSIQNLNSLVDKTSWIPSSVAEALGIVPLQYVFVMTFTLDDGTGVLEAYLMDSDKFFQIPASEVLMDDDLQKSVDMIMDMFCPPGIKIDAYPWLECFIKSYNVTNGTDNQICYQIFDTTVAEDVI
# Tests used:
# Assay in all cases: smFRET
# POT1 [1] = molecular target: T1, POT1
# POT1;TPP1N [2] = molecular target: T2, POT1;TPP1N (Homo sapiens;Homo sapiens?, UniProt Q9NUX5;Q96AP0 1-634;3-248, |)
# POT1 [3] = molecular target: T1, POT1; remark: listed apart in the source
# POT1;TPP1N [4] = molecular target: T2, POT1;TPP1N; remark: listed apart in the source
# POT1 [5] = molecular target: T1, POT1; remark: listed apart in the source
# POT1;TPP1N-Alexa 647 [6] = molecular target: T3, POT1;TPP1N-Alexa 647 (Homo sapiens;Homo sapiens?, UniProt Q9NUX5;Q96AP0 1-634;3-248, |)
# POT1 [7] = molecular target: T1, POT1; remark: listed apart in the source
# POT1;TPP1N-Alexa 647 [8] = molecular target: T3, POT1;TPP1N-Alexa 647; remark: listed apart in the source
# POT1 [9] = molecular target: T1, POT1; remark: listed apart in the source
# POT1 [10] = molecular target: T1, POT1; remark: listed apart in the source
# POT1;TPP1N-Alexa 647 [11] = molecular target: T3, POT1;TPP1N-Alexa 647; remark: listed apart in the source
# T3 sequence (Q96AP0 3-248, one chain of several): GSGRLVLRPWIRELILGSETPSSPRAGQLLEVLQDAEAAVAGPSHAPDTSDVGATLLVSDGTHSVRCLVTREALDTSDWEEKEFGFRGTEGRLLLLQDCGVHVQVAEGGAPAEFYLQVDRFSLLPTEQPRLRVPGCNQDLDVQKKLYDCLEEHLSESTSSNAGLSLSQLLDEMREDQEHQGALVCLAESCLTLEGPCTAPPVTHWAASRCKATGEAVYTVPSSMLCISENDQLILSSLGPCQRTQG
# T2 sequence (Q96AP0 3-248, one chain of several): as above
binder,measurement,setting,value
G2 (mixed) DNA 1: TGGCGACGGCAGCGAGGCTTAGGGTTAGGG DNA 2: GCCTCGCTGCCGTCGCCA,binding result,POT1 [1],binds
G4 (24 nt FRET) (mixed) DNA 1: TGGCGACGGCAGCGAGGCTTAGGGTTAGGGTTAGGGTTAGGG DNA 2: GCCTCGCTGCCGTCGCCA,binding result,POT1;TPP1N [2],binds
same,binding result,POT1 [3],binds
"G4 (18 nt Cy3) (mixed, internal Cy3 in strand 1 after nt 36) DNA 1: TGGCGACGGCAGCGAGGCTTAGGGTTAGGGTTAGGGTTAGGG DNA 2: GCCTCGCTGCCGTCGCCA",binding result,POT1;TPP1N [4],binds
same,binding result,POT1 [5],binds
G2-mut2 (unlabelled stem strand) (mixed) DNA 1: TGGCGACGGCAGCGAGGCTTAGGGTTAGGGTTTGGCTTTGGC DNA 2: GCCTCGCTGCCGTCGCCA,binding result,POT1;TPP1N-Alexa 647 [6],binds
G2-mut2 (FRET with Cy5 stem) (mixed) DNA 1: TGGCGACGGCAGCGAGGCTTAGGGTTAGGGTTTGGCTTTGGC DNA 2: GCCTCGCTGCCGTCGCCA,binding result,POT1 [7],binds
"G4 (6 nt Cy3) (mixed, internal Cy3 in strand 1 after nt 24) DNA 1: TGGCGACGGCAGCGAGGCTTAGGGTTAGGGTTAGGGTTAGGG DNA 2: GCCTCGCTGCCGTCGCCA",binding result,POT1 [5],binds
"G4 (3'Cy3, unlabelled stem strand) (mixed) DNA 1: TGGCGACGGCAGCGAGGCTTAGGGTTAGGGTTAGGGTTAGGG DNA 2: GCCTCGCTGCCGTCGCCA",binding result,POT1;TPP1N-Alexa 647 [8],binds
OB2 mutant (mixed) DNA 1: TGGCGACGGCAGCGAGGCTTAGGGTTTT DNA 2: GCCTCGCTGCCGTCGCCA,binding result,POT1 [9],binds
G3 (mixed) DNA 1: TGGCGACGGCAGCGAGGCTTAGGGTTAGGGTTAGGG DNA 2: GCCTCGCTGCCGTCGCCA,binding result,POT1 [10],binds
G2-mut4 (unlabelled stem strand) (mixed) DNA 1: TGGCGACGGCAGCGAGGCTTAGGGTTAGGGTTTGGCTTTGGCTTTGGCTTTGGC DNA 2: GCCTCGCTGCCGTCGCCA,binding result,POT1;TPP1N-Alexa 647 [11],binds
